Reference: patent US20200207835A1, “SRCP1-BASED THERAPY FOR DISEASES ASSOCIATED WITH PROTEIN AGGREGATION” (THE MEDICAL COLLEGE OF WISCONSIN, INC., priority 2017, published 2020)

Assays:
HD iPSC-derived neurons = experiment: Neurite length in HD iPSC-derived neurons; format: cell-based, human; conditions: HD iPSC-derived neurons with 60 or 180 glutamines, overexpression of SRCP1
Procedure: iPSC transfections were performed with mixed cultures of astrocytes and neurons adhered to matrigel-coated coverslips, seeded at 2.6×10^4 cells/cm^2. iPSC transfections were performed using Lipofectamine 2000 according to the manufacturer's instructions and recommended DNA concentrations for a 24-well transfection.
Plated iPSC derived cultures of astrocytes and neurons were fixed with 4% paraformaldehyde in PBS for 20 minutes at room temperature, 3-5 days after transfection. Cells were permeabilized and blocked prior to antibody labeling. Nuclei were labeled with Hoechst nuclear dye. Primary antibodies used were rabbit anti-Tuj1 (Covance MRB-435P), chicken anti-Tuj1(Gene Tex, GTX85469) and mouse anti-GFAP (Cell Signaling, 3670). Images were taken using an upright Nikon fluorescent microscope with a 40× objective. The number of neural cells with GFP positive puncta was quantified using NIS Elements object quantification tool (Nikon) and neurite length was measured using NIS Elements length measurement tool (Nikon).
For control iPSCs, four biological replicates from two independent differentiations were analyzed and for HD iPSCs, four biological replicates were analyzed from four separate differentiations using two independent HD lines.

^GFPHtt^ex1Q23 = biological target: T1, ^GFPHtt^ex1Q23 (Homo sapiens, UniProt P42858, DUP37-38); experiment: GFPHttex1Q23 levels in transfected HEK293 cells (western blot); format: cell-based; conditions: HEK293, 48 hours post-transfection
T1 construct: encoding pEGFP huntingtin exon-1 with 23 (^GFPHtt^ex1Q23) or 74 (^GFPHtt^ex1Q74) glutamines; host or cells: HEK293
Procedure: (§1) Transfections were performed with Lipofectamine 2000 (Invitrogen by ThermoFisher Scientific) and adapted from the manufacturer's instructions. Briefly, cells were plated on either 12-well or 6-well plates and transfected at 50-70% confluency. For 12-well transfections, 0.833 μg of DNA per well was mixed with 50 μl of OptiMEM (Gibco by Life Technologies) media and incubated for 5 minutes at room temperature. Lipofectamine 2000 in a 2:1, μl of lipofectamine: μg DNA ratio was mixed with 50 μl of OptiMEM media and incubated for 5 minutes at room temperature. DNA and Lipofectamine were mixed and incubated for 15 minutes at room temperature. Fresh media was added to cells prior to the addition of DNA and lipofectamine. For 6-well transfections, the same protocol is followed except that 1.25 μg of DNA per well and 100 μl of OptiMEM for dilution was used. Media was changed 24 hours post-transfection and cells were harvested 48 hours post-transfection. Prior to harvesting, HEK293 cells were washed three times with ice-cold 1×PBS. Samples were then lysed with either 150 μl of ice-cold NETN (with protease inhibitor) or 1× Laemmli Buffer and sonicated twice for 5-8 seconds.
Following sonication, lysates were subjected to BCA protein assay (ThermoFisher Scientific) and prepared for loading by the addition of 4× laemmli buffer and boiling for four minutes. […]

[1] = tested on: wild-type or mutant α-synuclein; experiment: α-synuclein levels in HEK293 cells (western blot); format: cell-based, human; conditions: HEK293, 48 hours, overexpression of SRCP1
Procedure: HEK 293 cells were transfected with either wild-type or mutant α-synuclein in the presence or absence of SRCP1. Cells were collected 48 hours later and analyzed by SDS-PAGE and western blot.

[2] = tested on: mutant (G85R or A4V) SOD1; experiment: Aggregated mutant SOD1 in HEK293 cells (ultracentrifugation, western blot); format: cell-based, human; conditions: HEK293, 48 hours, overexpression of SRCP1
Procedure: HEK293 cells were transfected with either wild-type or mutant (G85R or A4V) SOD1 either in the presence or absence of SRCP1 for 48 hours. Cells were then collected and lysed prior to ultracentrifugation to isolate aggregated proteins. After ultracentrifugation cell protein in the pellet was suspended in Laemmli buffer and analyzed by SDS-PAGE and western blot

^GFPHtt^ex1Q74 = experiment: GFPHttex1Q74 aggregation in transfected HEK293 cells (fluorescent/confocal microscopy, western blot, filter trap assay); format: cell-based, human
Procedure: as §1
For proteasome inhibition, 30 hours post-transfection cells would be replenished with DMEM containing either DMSO or 10 μM MG132 (Sigma-Aldrich) for 18 hours. Prior to harvesting, HEK293 cells were washed three times with ice-cold 1×PBS and imaged by fluorescent microscopy with a 20× objective using the Evos FL Auto Imaging System. Cells were then lysed with either 150 μl of ice-cold NETN (with protease inhibitor) or 1× Laemmli Buffer and sonicated twice for 5-8 seconds.
For autophagy inhibition, 24 hours post-transfection cells would be replenished with DMEM and treated with either DMSO or 5 mM 3-Methyladenine (Sigma-Aldrich) for an additional 24 hours. Prior to harvesting, HEK293 cells were washed three times with ice-cold 1×PBS and imaged by fluorescent microscopy with a 20× objective using the Evos FL Auto Imaging System. Cells were then lysed with either 150 μl of ice-cold NETN (with protease inhibitor) or 1× Laemmli Buffer and sonicated twice for 5-8 seconds.
For HEK293s′, slides were prepared by placing coverslips in 6-well plates and incubating with poly-L-lysine hydrobromide (Sigma-Aldrich) for an hour at room temperature. Coverslips were rinsed with 1×PBS three times prior to plating HEK293 cells. HEK293 cells were then transfected and fixed by incubation in 4% paraformaldehyde for 20 minutes at room temperature. Coverslips were mounted with ProLong Gold Antifade reagent and imaged with a 20× objective using the Evos FL Auto Imaging System or with a 40× objective using the Leica TCS SP5 Confocal Microscope System. For confocal, Z-stack images were obtained at […] intervals at 1024×1024 pixel resolution and merged using Fiji.
Following sonication, lysates were subjected to BCA protein assay (ThermoFisher Scientific) and prepared for loading by the addition of 4× laemmli buffer and boiling for four minutes. Samples then loaded on SDS-polyacrylamide gels, ran at 175 V, and transferred onto an Immuno-blot PVDF membrane (Biorad) overnight at 30 V. Membranes were blocked in 5% milk in TBS with 0.1% Tween (TBST) and incubated in primary antibody overnight at 4° C. Following primary, membranes were washed for 10 minutes at room temperature three times with TBST and incubated in secondary for an hour at room temperature. Membranes were then washed for 10 minutes at room temperature three times with TBST and then incubated in buffer for enhanced chemiluminescence (50 mM Na2HPO4; 50 mM Na2CO3; 10 mM NaBO3.4H2O; 250 mM luminol; 90 mM coumaric acid).
For HEK293 lysates, BCA protein assay was used to determine protein concentration. […]

[3] = HEK293, co-expression, fluorescent microscopy

^GFPHtt^ex1Q74, sequence (P42858 with tags, fused parts or gaps limits assumed): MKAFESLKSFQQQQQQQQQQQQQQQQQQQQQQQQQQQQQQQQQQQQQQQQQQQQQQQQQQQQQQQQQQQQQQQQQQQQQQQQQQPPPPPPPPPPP
T1 sequence (P42858 with tags, fused parts or gaps DUP37-38): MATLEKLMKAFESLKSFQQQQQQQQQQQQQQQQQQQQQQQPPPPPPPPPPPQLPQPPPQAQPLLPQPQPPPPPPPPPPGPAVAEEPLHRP

B1: SRCP1: Dictyostelium discoideum serine-rich chaperone protein 1 (SEQ ID NO:2), expressed in cells as RFP-tagged construct (protein)
chain: MTILSTFTSFSNPPKLNKSSFSSSTGSSLSMGSNSFAWGGGWGGFGGPKGGSFNVDIAGNLIWGVYGFIRGGVGLVKWRGLQKGCKQP
modifications: RFP tag; Dictyostelium discoideum AX4
neurite length (HD iPSC-derived neurons): significantly increased neurite length
levels of GFPHttex1Q23 (^GFPHtt^ex1Q23): did not alter the levels of
α-synuclein levels [1]: results in a reduction of α-synuclein
levels of aggregated mutant SOD1 [2]: reduces the levels of aggregated mutant SOD1
polyQ aggregation under proteasome inhibition (^GFPHtt^ex1Q74; HEK293, SRCP1 in the presence of proteasome inhibition): prevented polyQ aggregation
levels of monomeric, soluble GFPHttex1Q74 (^GFPHtt^ex1Q74; HEK293, co-expression): no effect on the levels of monomeric, soluble
soluble GFPHttex1Q74 levels under autophagy inhibition (^GFPHtt^ex1Q74; HEK293, co-expression of RFPSRCP1 plus 5 mM 3-MA): did not lead to a significant increase in soluble
soluble GFPHttex1Q74 under proteasome inhibition (^GFPHtt^ex1Q74; HEK293, co-expression of RFPSRCP1 plus proteasome inhibitor, compared to proteasome inhibition alone): even further increase in the amount of soluble
number of GFPHttex1Q74 puncta (^GFPHtt^ex1Q74; [3]): significantly decreases the number of puncta
size of GFPHttex1Q74 puncta (^GFPHtt^ex1Q74; [3]): significantly decreases ^GFPHtt^ex1Q74 puncta size
amount of GFPHttex1Q74 aggregates (^GFPHtt^ex1Q74; HEK293, co-expression, SDS-PAGE, filter trap assay, confocal microscopy): greatly reduced the amount of ^GFPHtt^ex1Q74 aggregates
